In PMC1802567:
Positions count from the first letter of the chain named. Read-outs that look alike come from different tables or passages of the source.

How the values were obtained:
p73α = target: T1, p73α (UniProt O15350 1-636); experiment: EMSA
T1 sequence: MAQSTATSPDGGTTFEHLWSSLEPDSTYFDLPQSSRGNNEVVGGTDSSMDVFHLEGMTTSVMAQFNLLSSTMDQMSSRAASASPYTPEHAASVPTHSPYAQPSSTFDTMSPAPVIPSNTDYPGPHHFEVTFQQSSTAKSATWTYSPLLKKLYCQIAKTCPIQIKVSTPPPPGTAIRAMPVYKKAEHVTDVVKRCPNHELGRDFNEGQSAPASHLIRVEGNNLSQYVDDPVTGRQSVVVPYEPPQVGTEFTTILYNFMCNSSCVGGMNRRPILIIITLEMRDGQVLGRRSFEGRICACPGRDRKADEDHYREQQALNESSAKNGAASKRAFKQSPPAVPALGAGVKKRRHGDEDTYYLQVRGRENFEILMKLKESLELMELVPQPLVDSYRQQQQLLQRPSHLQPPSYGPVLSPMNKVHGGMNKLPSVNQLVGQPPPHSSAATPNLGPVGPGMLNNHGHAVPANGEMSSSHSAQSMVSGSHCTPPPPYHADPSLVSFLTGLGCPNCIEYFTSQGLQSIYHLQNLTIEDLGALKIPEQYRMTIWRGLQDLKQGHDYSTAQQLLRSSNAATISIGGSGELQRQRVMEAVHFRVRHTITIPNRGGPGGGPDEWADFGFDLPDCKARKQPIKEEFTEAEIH

ΔNp63β = target: T2, ΔNp63β (UniProt Q9H3D4-4 1-461); experiment: EMSA
T2 sequence: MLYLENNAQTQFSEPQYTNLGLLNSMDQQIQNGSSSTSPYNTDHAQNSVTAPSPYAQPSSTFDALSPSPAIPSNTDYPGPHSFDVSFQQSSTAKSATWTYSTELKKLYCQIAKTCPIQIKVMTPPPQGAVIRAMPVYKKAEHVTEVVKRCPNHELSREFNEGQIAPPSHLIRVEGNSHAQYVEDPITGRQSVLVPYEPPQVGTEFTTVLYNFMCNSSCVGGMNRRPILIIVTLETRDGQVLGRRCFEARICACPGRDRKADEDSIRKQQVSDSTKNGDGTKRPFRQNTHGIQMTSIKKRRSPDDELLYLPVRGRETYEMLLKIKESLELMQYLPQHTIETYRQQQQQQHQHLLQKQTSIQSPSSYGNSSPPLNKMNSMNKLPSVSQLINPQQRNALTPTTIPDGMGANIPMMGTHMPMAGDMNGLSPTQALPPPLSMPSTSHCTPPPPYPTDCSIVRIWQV

p53 [1] = target: T3, p53 (UniProt P04637 1-393); experiment: EMSA
p73β [2] = target: T4, p73β (UniProt O15350-2 1-499); experiment: EMSA
T4 sequence: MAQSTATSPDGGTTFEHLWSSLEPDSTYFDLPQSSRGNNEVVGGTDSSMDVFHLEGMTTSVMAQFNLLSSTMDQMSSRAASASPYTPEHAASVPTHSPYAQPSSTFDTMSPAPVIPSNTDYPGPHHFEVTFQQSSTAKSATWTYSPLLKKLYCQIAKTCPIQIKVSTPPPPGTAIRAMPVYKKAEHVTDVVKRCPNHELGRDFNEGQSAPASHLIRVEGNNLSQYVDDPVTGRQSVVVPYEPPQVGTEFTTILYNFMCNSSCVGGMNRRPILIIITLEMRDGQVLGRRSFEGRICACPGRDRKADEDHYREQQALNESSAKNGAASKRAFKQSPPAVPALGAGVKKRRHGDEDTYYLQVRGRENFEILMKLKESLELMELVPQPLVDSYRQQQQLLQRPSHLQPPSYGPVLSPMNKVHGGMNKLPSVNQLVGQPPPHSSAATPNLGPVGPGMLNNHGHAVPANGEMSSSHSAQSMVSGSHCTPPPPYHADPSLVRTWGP

p73β(C262S) = target: T5, p73β(C262S) (UniProt O15350-2 1-499, C262S); experiment: DNA immunobinding assay
T5 sequence: T4 sequence with C262S

p53 [3] = target: T3, p53; experiment: EMSA; remark: listed apart in the source
p73β [4] = target: T4, p73β; experiment: EMSA; remark: listed apart in the source
p73β [5] = target: T4, p73β; experiment: EMSA; remark: listed apart in the source
p73β [6] = target: T4, p73β; experiment: EMSA; remark: listed apart in the source

T3 sequence (P04637 whole entry): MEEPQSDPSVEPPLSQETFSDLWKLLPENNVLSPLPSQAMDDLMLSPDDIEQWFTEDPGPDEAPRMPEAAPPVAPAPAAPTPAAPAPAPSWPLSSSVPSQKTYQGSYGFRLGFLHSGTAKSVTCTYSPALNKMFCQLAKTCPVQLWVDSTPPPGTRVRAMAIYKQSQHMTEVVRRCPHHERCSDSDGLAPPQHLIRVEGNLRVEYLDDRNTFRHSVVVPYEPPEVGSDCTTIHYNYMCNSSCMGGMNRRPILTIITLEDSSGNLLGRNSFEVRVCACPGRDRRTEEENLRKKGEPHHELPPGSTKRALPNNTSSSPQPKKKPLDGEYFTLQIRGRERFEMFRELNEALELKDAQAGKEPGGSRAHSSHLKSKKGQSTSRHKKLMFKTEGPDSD

B1: p21 5' site (dsDNA)
DNA 1: AGCTAGTAGAGCGAACATGTCCCAACATGTTGGCGTGCTGCAGC
DNA 2: GCTGCAGCACGCCAACATGTTGGGACATGTTCGCTCTACTAGCT
binding result (p73α): binds | binding result (ΔNp63β): binds | binding result (p53 [1]): binds | binding result (p73β [2]): binds | binding signal (p73β(C262S)): 1.5 fold over background

B2: PPC (dsDNA)
DNA 1: AGCTAGTAGAGCTGGCATGTCCCGACTTGTTAGCGTGCTGCAGC
DNA 2: GCTGCAGCACGCTAACAAGTCGGGACATGCCAGCTCTACTAGCT
binding result (p53 [3]): binds | binding result (p73β [4]): binds

B3: PIG3 (dsDNA)
DNA 1: AGCTAGTAGAGCCAGCTTGCCCACCCATGCTCGCGTGCTGCAGC
DNA 2: GCTGCAGCACGCGAGCATGGGTGGGCAAGCTGGCTCTACTAGCT
binding result (p53 [1]): binds | binding result (p73β [5]): binds

B4: PUMA (dsDNA)
DNA 1: AGCTAGTAGAGCCTGCAAGTCCTGACTTGTCCGCGTGCTGCAGC
DNA 2: GCTGCAGCACGCGGACAAGTCAGGACTTGCAGGCTCTACTAGCT
binding result (p73β [6]): binds
